Values belong to the binder of their own block, whether it stands above or below them.
Assays:
[1] = biological target: T1, mouse PCSK9, myc-myc-his tagged (mouse, UniProt Q80W65 35-694); test: competition ELISA vs EGF-A, pH 7.2
T1 construct: also called mPCSK9-mmh; mPCSK9
Procedure: (§1) Briefly, hLDLR-ecto, hLDLR EGF-A-hFc or hLDLR EGF-AB-hFc, each at 2 μg/ml, was coated on a 96-well plate in PBS buffer overnight at 4° C., and nonspecific binding sites blocked with BSA. […] The equilibrated sample solutions were transferred to receptor or receptor fragment coated plates.

[2] = biological target: T2, rat (Rattus norvegicus) PCSK9, myc-myc-his tagged (rat (Rattus norvegicus), UniProt P59996 31-691); test: competition ELISA vs EGF-A, pH 7.2
T2 construct: also called rPCSK9-mmh; rPCSK9
Procedure: as §1

Human PCSK9-myc-myc-his [3] = biological target: T3, Human PCSK9-myc-myc-his (human, UniProt Q8NBP7 31-692); test: competition ELISA vs EGF-A, pH 7.2
T3 construct: also called hPCSK9-mmh; hPCSK9
Procedure: as §1

[4] = biological target: T4, tagged rhesus monkey (Macaca mulata) PCSK9 (rhesus monkey (Macaca mulata), UniProt A8T666 31-692); test: competition ELISA vs EGF-A, pH 7.2
T4 construct: also called mmPCSK9-mmh; mmPCSK9
Procedure: as §1

hPCSK9(F216L) = biological target: T5, hPCSK9(F216L) (human, UniProt Q8NBP7 31-692); test: ELISA, mAb coated, variant 0-5 nM
T5 construct: mmh-tagged variant hPCSK9
Procedure: (§2) Anti-PCSK9 mAbs were coated on a 96-well plate overnight at 4° C.

hPCSK9(E366K, V380M) = biological target: T6, hPCSK9(E366K, V380M) (human, UniProt Q8NBP7 31-692); test: ELISA, mAb coated, variant 0-5 nM
T6 construct: mmh-tagged variant hPCSK9
Procedure: as §2

hPCSK9(E159R) = biological target: T7, hPCSK9(E159R) (human, UniProt Q8NBP7 31-692); test: ELISA, mAb coated, variant 0-5 nM
T7 construct: mmh-tagged variant hPCSK9
Procedure: as §2

hPCSK9(S127R) = biological target: T8, hPCSK9(S127R) (human, UniProt Q8NBP7 31-692); test: ELISA, mAb coated, variant 0-5 nM
T8 construct: mmh-tagged variant hPCSK9
Procedure: as §2

hPCSK9(R215E) = biological target: T9, hPCSK9(R215E) (human, UniProt Q8NBP7 31-692); test: ELISA, mAb coated, variant 0-5 nM
T9 construct: mmh-tagged variant hPCSK9
Procedure: as §2

hPCSK9(P70A, S147F) = hPCSK9(P70A, S147F) (human, UniProt Q8NBP7 31-692); test: ELISA, mAb coated, variant 0-5 nM
Procedure: as §2

hPCSK9(E197R) = biological target: T10, hPCSK9(E197R) (human, UniProt Q8NBP7 31-692); test: ELISA, mAb coated, variant 0-5 nM
T10 construct: mmh-tagged variant hPCSK9
Procedure: as §2

hPCSK9(V380M) = biological target: T11, hPCSK9(V380M) (human, UniProt Q8NBP7 31-692); test: ELISA, mAb coated, variant 0-5 nM
T11 construct: mmh-tagged variant hPCSK9
Procedure: as §2

hPCSK9(S153R) = biological target: T12, hPCSK9(S153R) (human, UniProt Q8NBP7 31-692); test: ELISA, mAb coated, variant 0-5 nM
T12 construct: mmh-tagged variant hPCSK9
Procedure: as §2

hPCSK9(R357H) = biological target: T13, hPCSK9(R357H) (human, UniProt Q8NBP7 31-692); test: ELISA, mAb coated, variant 0-5 nM
T13 construct: mmh-tagged variant hPCSK9
Procedure: as §2

hPCSK9(E366K) = biological target: T14, hPCSK9(E366K) (human, UniProt Q8NBP7 31-692); test: ELISA, mAb coated, variant 0-5 nM
T14 construct: mmh-tagged variant hPCSK9
Procedure: as §2

hPCSK9(S147F) = biological target: T15, hPCSK9(S147F) (human, UniProt Q8NBP7 31-692); test: ELISA, mAb coated, variant 0-5 nM
T15 construct: mmh-tagged variant hPCSK9
Procedure: as §2

hPCSK9(D192R) = biological target: T16, hPCSK9(D192R) (human, UniProt Q8NBP7 31-692); test: ELISA, mAb coated, variant 0-5 nM
T16 construct: mmh-tagged variant hPCSK9
Procedure: as §2

hPCSK9(R215H) = biological target: T17, hPCSK9(R215H) (human, UniProt Q8NBP7 31-692); test: ELISA, mAb coated, variant 0-5 nM
T17 construct: mmh-tagged variant hPCSK9
Procedure: as §2

hPCSK9(D343R) = biological target: T18, hPCSK9(D343R) (human, UniProt Q8NBP7 31-692); test: ELISA, mAb coated, variant 0-5 nM
T18 construct: mmh-tagged variant hPCSK9
Procedure: as §2

Human PCSK9-myc-myc-his [5] = biological target: T3, Human PCSK9-myc-myc-his; test: ELISA, mAb coated, variant 0-5 nM
Procedure: as §2

hPCSK9(D129G) = biological target: T19, hPCSK9(D129G) (human, UniProt Q8NBP7 31-692); test: ELISA, mAb coated, variant 0-5 nM
T19 construct: mmh-tagged variant hPCSK9
Procedure: as §2

hPCSK9(R237E) = biological target: T20, hPCSK9(R237E) (human, UniProt Q8NBP7 31-692); test: ELISA, mAb coated, variant 0-5 nM
T20 construct: mmh-tagged variant hPCSK9
Procedure: as §2

hPCSK9(T162R) = biological target: T21, hPCSK9(T162R) (human, UniProt Q8NBP7 31-692); test: ELISA, mAb coated, variant 0-5 nM
T21 construct: mmh-tagged variant hPCSK9
Procedure: as §2

hPCSK9(A341R) = biological target: T22, hPCSK9(A341R) (human, UniProt Q8NBP7 31-692); test: ELISA, mAb coated, variant 0-5 nM
T22 construct: mmh-tagged variant hPCSK9
Procedure: as §2

hPCSK9(D238R) = biological target: T23, hPCSK9(D238R) (human, UniProt Q8NBP7 31-692); test: ELISA, mAb coated, variant 0-5 nM
T23 construct: mmh-tagged variant hPCSK9
Procedure: as §2

hPCSK9(R194E) = biological target: T24, hPCSK9(R194E) (human, UniProt Q8NBP7 31-692); test: ELISA, mAb coated, variant 0-5 nM
T24 construct: mmh-tagged variant hPCSK9
Procedure: as §2

[6] = biological target: T25, cynomolgus monkey (Macaca fascicularis) PCSK9, myc-myc-his tagged (cynomolgus monkey (Macaca fascicularis), UniProt A8T662 31-692 (Macaca nemestrina entry), limits assumed); test: SPR, mAb amine-coupled, 37C, pH 5.5
T25 construct: also called mfPCSK9-mmh; mfPCSK9
Source text: (§3) Briefly, mAbs were immobilized onto BIACORE™ CM5 sensor chips via amine coupling.

Human PCSK9-myc-myc-his [7] = biological target: T3, Human PCSK9-myc-myc-his; test: SPR, mAb amine-coupled, 37C, pH 5.5
Source text: as §3

hPCSK9(D374Y)-mmh = biological target: T26, hPCSK9(D374Y)-mmh (human, UniProt Q8NBP7 31-692); test: SPR, mAb amine-coupled, 37C, pH 5.5
T26 construct: also called hPCSK(D374Y)-mmh
Source text: as §3

T25 sequence (A8T662 31-692 limits assumed): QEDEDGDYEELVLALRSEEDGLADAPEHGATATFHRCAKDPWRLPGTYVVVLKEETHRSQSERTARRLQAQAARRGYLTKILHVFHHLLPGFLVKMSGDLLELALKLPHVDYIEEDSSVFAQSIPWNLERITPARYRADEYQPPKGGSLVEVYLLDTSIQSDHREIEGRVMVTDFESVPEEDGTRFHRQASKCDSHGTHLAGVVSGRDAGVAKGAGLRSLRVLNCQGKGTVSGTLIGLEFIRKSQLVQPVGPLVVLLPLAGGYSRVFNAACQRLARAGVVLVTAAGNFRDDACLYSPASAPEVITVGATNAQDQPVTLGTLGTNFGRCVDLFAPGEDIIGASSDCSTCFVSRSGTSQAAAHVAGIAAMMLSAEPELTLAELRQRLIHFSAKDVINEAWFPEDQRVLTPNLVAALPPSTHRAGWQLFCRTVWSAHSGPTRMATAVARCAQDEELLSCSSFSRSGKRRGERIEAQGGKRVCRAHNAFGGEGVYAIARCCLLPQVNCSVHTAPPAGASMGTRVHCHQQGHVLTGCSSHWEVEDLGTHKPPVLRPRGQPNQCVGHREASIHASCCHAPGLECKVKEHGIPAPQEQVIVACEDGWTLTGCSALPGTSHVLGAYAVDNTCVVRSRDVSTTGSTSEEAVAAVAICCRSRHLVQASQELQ
T1 sequence (Q80W65 35-694 limits assumed): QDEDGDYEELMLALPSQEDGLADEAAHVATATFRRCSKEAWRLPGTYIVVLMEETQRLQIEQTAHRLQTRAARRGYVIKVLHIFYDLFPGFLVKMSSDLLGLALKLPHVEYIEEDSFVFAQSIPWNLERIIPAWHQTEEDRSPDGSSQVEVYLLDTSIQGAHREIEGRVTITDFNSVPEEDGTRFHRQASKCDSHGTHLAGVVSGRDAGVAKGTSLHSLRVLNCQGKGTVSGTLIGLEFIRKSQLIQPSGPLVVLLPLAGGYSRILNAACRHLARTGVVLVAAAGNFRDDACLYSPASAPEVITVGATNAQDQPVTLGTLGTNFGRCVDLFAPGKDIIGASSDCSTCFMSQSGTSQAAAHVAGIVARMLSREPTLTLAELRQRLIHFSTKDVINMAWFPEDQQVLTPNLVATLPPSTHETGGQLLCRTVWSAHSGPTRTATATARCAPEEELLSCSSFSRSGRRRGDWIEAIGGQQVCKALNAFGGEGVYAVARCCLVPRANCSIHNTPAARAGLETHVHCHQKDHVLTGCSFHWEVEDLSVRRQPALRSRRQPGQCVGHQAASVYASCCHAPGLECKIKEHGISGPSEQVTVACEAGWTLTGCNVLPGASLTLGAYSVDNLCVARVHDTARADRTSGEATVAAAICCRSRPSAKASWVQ
T4 sequence (A8T666 31-692 limits assumed): as the sequence (A8T662 31-692 limits assumed) above, with A607P, E639K counted along it
T2 sequence (P59996 31-691 limits assumed): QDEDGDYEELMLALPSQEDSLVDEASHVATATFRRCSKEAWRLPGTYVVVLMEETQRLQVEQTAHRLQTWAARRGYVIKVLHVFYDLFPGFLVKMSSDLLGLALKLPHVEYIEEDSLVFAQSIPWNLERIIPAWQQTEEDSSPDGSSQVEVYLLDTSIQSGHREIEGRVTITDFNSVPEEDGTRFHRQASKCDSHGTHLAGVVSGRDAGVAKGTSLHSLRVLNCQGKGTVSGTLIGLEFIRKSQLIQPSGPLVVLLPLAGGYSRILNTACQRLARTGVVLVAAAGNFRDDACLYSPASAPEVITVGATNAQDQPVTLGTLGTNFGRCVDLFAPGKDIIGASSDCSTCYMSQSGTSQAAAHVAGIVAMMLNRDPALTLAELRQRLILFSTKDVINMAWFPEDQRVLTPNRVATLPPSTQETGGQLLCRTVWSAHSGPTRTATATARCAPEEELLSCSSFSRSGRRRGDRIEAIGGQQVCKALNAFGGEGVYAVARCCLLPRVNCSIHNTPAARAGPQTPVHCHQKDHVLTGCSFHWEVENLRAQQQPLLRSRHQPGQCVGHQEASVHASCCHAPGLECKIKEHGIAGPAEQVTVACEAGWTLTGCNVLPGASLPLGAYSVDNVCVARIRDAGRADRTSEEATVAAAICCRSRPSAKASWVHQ

B1: H1H316P (antibody, V domains shown)
VH: EVQLVESGGGLVQPGGSLRLSCAASGFTFNNYAMNWVRQAPGKGLDWVSTISGSGGTTNYADSVKGRFIISRDSSKHTLYLQMNSLRAEDTAVYYCAKDSNWGNFDLWGRGTLVTVSS
VL: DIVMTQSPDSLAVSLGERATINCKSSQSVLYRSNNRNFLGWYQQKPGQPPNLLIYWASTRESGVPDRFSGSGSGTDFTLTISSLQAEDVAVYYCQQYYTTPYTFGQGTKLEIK
notes: Fully human mAb made in CHO cells; also called mAb316P
IC50 [1]: 0.305 nM
IC50 [2]: 2.66 nM
IC50 (Human PCSK9-myc-myc-his [3]): < 0.125 nM
IC50 [4]: < 0.25 nM
OD (hPCSK9(F216L)): > 1.5 od
OD (hPCSK9(E366K, V380M)): > 1.5 od
OD (hPCSK9(E159R)): > 1.5 od
OD (hPCSK9(S127R)): > 1.5 od
OD (hPCSK9(R215E)): > 1.5 od
OD (hPCSK9(P70A, S147F)): > 1.5 od
OD (hPCSK9(E197R)): > 1.5 od
OD (hPCSK9(V380M)): > 1.5 od
OD (hPCSK9(S153R)): > 1.5 od
OD (hPCSK9(R357H)): > 1.5 od
OD (hPCSK9(E366K)): > 1.5 od
OD (hPCSK9(S147F)): > 1.5 od
OD (hPCSK9(D192R)): > 1.5 od
OD (hPCSK9(R215H)): > 1.5 od
OD (hPCSK9(D343R)): > 1.5 od
OD (Human PCSK9-myc-myc-his [5]): > 1.5 od
OD (hPCSK9(D129G)): > 1.5 od
OD (hPCSK9(R237E)): > 1.5 od
OD (hPCSK9(T162R)): > 1.5 od
OD (hPCSK9(A341R)): > 1.5 od
OD (hPCSK9(D238R)): < 0.7 od
OD (hPCSK9(R194E)): > 1.5 od
Kd [6]: 0.044 nM
T1/2 [6]: 5 min
Kd (Human PCSK9-myc-myc-his [7]): 0.142 nM
T1/2 (Human PCSK9-myc-myc-his [7]): 11 min
Kd (hPCSK9(D374Y)-mmh): 1.56 nM
T1/2 (hPCSK9(D374Y)-mmh): 5 min

IC50 [1]: > 100 nM
IC50 [2]: > 100 nM
IC50 (Human PCSK9-myc-myc-his [3]): 0.182 nM
IC50 [4]: 0.46 nM
OD (hPCSK9(F216L)): > 1.5 od
OD (hPCSK9(E366K, V380M)): 0.7 to 1.5 od
OD (hPCSK9(E159R)): > 1.5 od
OD (hPCSK9(S127R)): > 1.5 od
OD (hPCSK9(R215E)): > 1.5 od
OD (hPCSK9(P70A, S147F)): > 1.5 od
OD (hPCSK9(E197R)): > 1.5 od
OD (hPCSK9(V380M)): > 1.5 od
OD (hPCSK9(S153R)): > 1.5 od
OD (hPCSK9(R357H)): > 1.5 od
OD (hPCSK9(E366K)): 0.7 to 1.5 od
OD (hPCSK9(S147F)): > 1.5 od
OD (hPCSK9(D192R)): > 1.5 od
OD (hPCSK9(R215H)): > 1.5 od
OD (hPCSK9(D343R)): > 1.5 od
OD (Human PCSK9-myc-myc-his [5]): > 1.5 od
OD (hPCSK9(D129G)): > 1.5 od
OD (hPCSK9(R237E)): > 1.5 od
OD (hPCSK9(T162R)): > 1.5 od
OD (hPCSK9(A341R)): > 1.5 od
OD (hPCSK9(D238R)): > 1.5 od
OD (hPCSK9(R194E)): > 1.5 od
Kd [6]: 65.2 nM
T1/2 [6]: 0.1 min
Kd (Human PCSK9-myc-myc-his [7]): 11.9 nM
T1/2 (Human PCSK9-myc-myc-his [7]): 1 min
Kd (hPCSK9(D374Y)-mmh): 28 nM
T1/2 (hPCSK9(D374Y)-mmh): 1 min
B2: H1M300N (antibody, V domains shown)
VH: EMQLVESGGGLVQPGGSLRLSCAASGFTFSSHWMKWVRQAPGKGLEWVANINQDGSEKYYVDSVKGRFTISRDNAKNSLFLQMNSLRAEDTAVYYCARDIVLMVYDMDYYYYGMDVWGQGTTVTVSS
VL: not shown
notes: Fully human version made in CHO cells
